T1: human soluble IL-6R, recombinant (human, UniProt P08887 20-358)
T1 construct: also called human IL6-R; bio-IL-6R
T1 sequence (looked up): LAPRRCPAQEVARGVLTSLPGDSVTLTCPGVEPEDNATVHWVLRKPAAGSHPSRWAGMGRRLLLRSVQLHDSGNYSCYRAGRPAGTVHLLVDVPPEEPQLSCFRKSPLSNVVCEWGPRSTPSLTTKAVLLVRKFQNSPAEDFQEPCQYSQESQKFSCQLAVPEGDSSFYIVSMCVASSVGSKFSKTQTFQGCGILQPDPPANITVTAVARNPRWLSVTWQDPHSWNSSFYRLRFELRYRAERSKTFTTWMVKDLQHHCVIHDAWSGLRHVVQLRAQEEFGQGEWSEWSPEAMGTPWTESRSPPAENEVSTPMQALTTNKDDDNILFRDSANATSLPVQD


Experiments:
[1] = target: IL-6R on the surface of TF-1 cells (UniProt P08887); assay: cell-based or functional assay
[2] = target: T1, human soluble IL-6R, recombinant; assay: Biacore, periplasmic extract
Method: Periplasmic extracts of representative family clones were also analyzed on Biacore. Dissociation curves were used to calculate koff rates. koff rates are depicted in Table C-6.

[3] = target: cynomolgus IL-6R used in Biacore (cynomolgus monkey); assay: Biacore, periplasmic extract

IL-6R on the surface of TF-1 cells, sequence (P08887 20-468 limits assumed): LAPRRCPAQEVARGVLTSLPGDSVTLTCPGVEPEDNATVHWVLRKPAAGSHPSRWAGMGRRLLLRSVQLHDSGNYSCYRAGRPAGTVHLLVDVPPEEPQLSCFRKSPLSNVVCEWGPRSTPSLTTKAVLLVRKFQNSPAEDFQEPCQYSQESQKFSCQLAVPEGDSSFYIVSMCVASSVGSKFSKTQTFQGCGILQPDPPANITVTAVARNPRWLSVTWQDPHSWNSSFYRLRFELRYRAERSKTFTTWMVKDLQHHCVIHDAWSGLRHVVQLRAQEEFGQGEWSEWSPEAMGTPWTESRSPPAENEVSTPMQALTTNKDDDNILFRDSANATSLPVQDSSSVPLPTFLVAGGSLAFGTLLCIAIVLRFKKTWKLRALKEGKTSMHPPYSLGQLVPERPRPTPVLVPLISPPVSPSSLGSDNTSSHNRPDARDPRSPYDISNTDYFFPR

Row | koff [2] [s⁻¹] | koff [3] [s⁻¹] | Binder | further results
1 | 0.01 | 0.01 | IL6RPMP105H10 (VHH, family 3; periplasmic extract) VHH: EVQMVESGGGLVQAGGSLRLSCAASGFAFDDYAIGWFRQAPGKEREGVSSISSSNGNTYYADSVRGRFTISSDNAKNTVYLQMNSLKPEDAGVYYCAAIWGIFFNEKMPVGAYDYWGQGTQVTVSS | 
2 | 0.01 | 0.01 | IL6RPMP105B8 (VHH, family 3; periplasmic extract) VHH: EVQLVESGGGLVRAGGSLRLSCAASGFAFDDYAIGWFRQAPGKEREGVSSISSSNGNTYYADSVRGRFTISSDNAKNTVYLQMNSLKPEDTGVYYCAAIWGIFFNEKMPVGAYDYWGQGTQVTVSS | 
3 |  | 0.001 | IL6RPMP103A2 (VHH) VHH: EVQLVESGGGLVQPGGSLRLSCAASGSIFSINTMGWYRQVPGKQRELVATVRSGSITNYADSVQDQFTITRDIDENTVYLQMNSLKPEDTAVYYCLTRASVPGRGYQDYWGQGTQVTVSS | 
4 | 0.01 |  | IL6RPMP107E4 (VHH, periplasmic extract) VHH: EVQLVESGGGLVQAGGSLRLSCAASGSIDRINAMGWYRQAPGKQRDFLAVITDGDKTLYADSVKGRFTISNDNAKNTVYLQMNSLKPEDTAVYYCNAYQAGWGDYWGQGTQVTVSS | 
5 | 0.01 |  | IL6RPMP105D3 (VHH, family 6; periplasmic extract) VHH: EVQLEESGGGLVQAGGSLRLSCAASGSIFRINAMGWYRQAPGKQRELVAAAISGGSTNYADFVKGRFTISRDNAKNTVYLQMNSLKPEDTAVYYCNALVVSHNYSDYVPFPDDYWGQGTQVTVSS | 
6 | 0.01 |  | IL6RPMP105C2 (VHH, family 6; periplasmic extract) VHH: EVQLVESGGGLVQAGGSLRLSCAASGSIFRINAMGWYRQAPGEQRELVAAAISGGSTNYADFVKGRFTISRDNAKNTVYLQMNSLKPEDTAVYYCNALVVSHNYSDYVPFPDDYWGQGTQVTVSS | 
7 | 0.01 |  | IL6RPMP106F7 (VHH, family 6; periplasmic extract) VHH: EVQLVESEGGLVQAGGSLRLSCAASGSIFRINAMGWYRQAPGKQRELVAAAISGGSTNYADFVKGRFTISRDNAKNTVYLQMNSLKPEDTAVYYCNALVVSHNYSDYVPFPDDYWGQGTQVTVSS | 
8 |  | 0.00074 | IL6RPMP100D11 (VHH) VHH: EVQLVESGGGLVQAGDSLRLSCLASGRSFKDDAMGWFRQAPGKEREFVSGIDWRGNIVDAESVKGRFTISRENAKNTLYLQMNHLKPEDTAVYYCAASSVFSDLRYRKNPKYWGQGTQVTVSS | 
9 | 0.00027 | 0.00045 | IL6RPMP101A5 (VHH, family 5; periplasmic extract) VHH: EVQLVESGGGLVQAGGSLRLSCTASGRTFSDYDMGWFRQAPGKERECVAIIDTNGDNTLIVGSVKGRFAISSDNAKNTVYLQMNSLLPEDTAVYTCAAGVWSSLRHTAANYWGQGTQVTVSS | 
10 |  | 0.00079 | IL6RPMP108D1 (VHH) VHH: EVQLVESGGGLVQAGGSLRLSCTASGRTFSDYDMGWFRQAPGKERECVAVIDTNGDNTLTVGSVKGRFAISRDNAKNTVYLQMNSLLPEDTAVYTCAAGAWSSLRSTAANYWGQGTKVTVSS | 
11 |  | 0.0009 | IL6RPMP108D10 (VHH) VHH: EVQLVESGGGSVQAGGSLRLSCTASGRTFSDYDMGWFRQAPGKERECVAVIDTNGDNTLTVGSVKGRFAISRDNAKNTVYLQMNSLLPEDTAVYTCAAGAWSSLRSTAANYWGQGTQVTVSS | 
12 | 0.00023 | 0.00074 | IL6RPMP104B9 (VHH, family 5; periplasmic extract) VHH: EVQLVESGGGLVQAGGSLRLSCTASGRTFSDYDMGWFRQAPGKERECVAIIDTNGDNTLIVGSVKGRFAISSDNAKNTVYLQMNSLLPEDTAVYTCAAGVWSSLRHTAANYWGQGTQVTVSS | 
13 |  | 0.00074 | IL6RPMP103A5 (VHH) VHH: EVQLVESGGGLVQAGDSLRLSCVASGLPFSTLHMGWFRQAPGKEHESVSAISSDGGSEYYAGSVKGRFTISRDNAKNTVYLQMNSLKPEDTAVYYCAADPRRIGANIKYSDYWGQGTQVTVSS | 

Further lines, the binder ahead of its results:

Row | Binder | koff [2] [s⁻¹] | koff [3] [s⁻¹] | further results
14 | IL6RPMP120G6 (VHH) VHH: EVQLVESGGDLVQTGGSLRLSCAASGITVSDRAMGWYRQAPGKQREMVAGVSRGGMTSYADSVKGRLTISRDNAKNSVYLQMNSLNPEDTAVYYCSAYYRYGSSVPQYWGQGTQVTVSS |  |  | IC50, IL-6-dependent proliferation of TF-1 cells [1]: 0.0102 µM
15 | IL6RPMP104B8 (VHH, family 3; also called PMP104B08; IL6R104B8) VHH: EVQLVESGGGLVQAGGSLRLSCAASGFAFDDYAIGWFRQAPGKEREGVSSISSSNGNTYYADSVRGRFTISSDNAKNTVYLQMNSLKPEDTGVYYCAAIWGIFFNEKMPVGAYDYWGQGTQVTVSS | 0.01 | 0.01 | IC50, IL-6-dependent proliferation of TF-1 cells [1]: 0.245 µM
16 | IL6RPMP107B4 (VHH, family 17; periplasmic extract; also called PMP107B04) VHH: EVQLVESGGGLVQAGGSLRLSCVASGLRLNMHRMGWFRQAPGKEREFVARIFTDDGDSYYADSVQGRFTISGDNAKNTVYLQMNSLKPEDTGVYFCAAGYMSGAESPIGYDNWGQGTQVTVSS | 0.01 | 0.01 | 
17 | IL6RPMP108E9 (VHH, family 15; periplasmic extract) VHH: EVQLVESGGGLVQAGGSLRLSCAFSRRSFGNFPMGWFRQRPGEEREYVAVISWNNNYIHYRDSVKGRFTASRDTSENRMYLQMNGLKPEDTAVYYCAARTKDNTLFTPAEEYDYWGQGTQVTVSS |  |  | binding result [2]: no binding
18 | IL6RPMP101G11 (VHH, family 2; periplasmic extract) VHH: EVQLVESGGGLVQPGGSLRLSCAASASGFTLDYYAIGWFRQAPGKEREGVSCISSTDGSTYYADSVKGRFTISRDNAKNTVYLQMNSLNPEDTGVYTCAAVLTTAQAMGVPTRSYEYDYWGQGTQVTVSS | 0.00042 |  | 
19 | IL6RPMP104E7 (VHH, family 18; periplasmic extract; also called PMP104E07) VHH: EVQLVESGGGLVQAGGSLRLSCAAGGSIFSINAMGWYRQAPGKQRELVASITSGGSTTYADSVKGRFTISRDNAKDTVYLQMNSLKPEDTAVYYCNAHIRFPFPNDYWGQGTQVTVSS | 0.001 |  | 
20 | IL6RPMP103C3 (VHH, family 14; periplasmic extract) VHH: EVQLVESGGGLVQPGGSMRLSCAATGAIFSISTMGWYRQAPGAQREFVAGVGLDGTPNYADSVKGRFTISRDNTKNTVSLQMENLKPEDTGVYYCNIDEGMDYDGNFYDRWGQGTQVTVSS |  |  | binding result [2]: no binding
21 | IL6RPMP103B2 (VHH) VHH: EVQLVESGGGLVQPGGSLRLSCAASGSTFSINMMAWYCQAPGKQRELVASISSGGGINYADSVKGRFTISRDYAENSVDLQMNSLKPEDTAVYYCNARGTYLNGDHYSTNYNSWGQGTQVTVSS |  | 0.00045 | 
22 | IL6RPMP108C9 (VHH, family 16; periplasmic extract) VHH: EVQLVESGGGLVQAGGSLRLSCAASGRTYAMAWFRQAPGKEREFVAAISIVTDYADSVKGRFNISRDNRENTVYLQMNSLKPEDTAVYYCAANTYYSGAYFPRGHEWYEYWGQGTQVTVSS |  |  | binding result [2]: no binding
23 | IL6RPMP103A4 (VHH) VHH: EVQLVESGGGLVQPGGSLRLSCAASGSIFSINTMGWYRQVPGKQRELVATVRSGSITNYADSVQDRFTITRDIDENTVYLQMNSLKPEDTAVYYCLTRASVPGRGYQDYWGQGTQVTVSS |  | 0.00045 | 
24 | IL6RPMP101B6 (VHH, family 7; periplasmic extract) VHH: EVQLVESGGGLVQAGGSLRLSCAASGSDFSIKAMGWYRQAPGKQRELVARITSGGSTVYADSVKGRFTISRDNAKNTVYLQMNSLKPEDATVYYCNAIVTYSDYDLGNDYWGQGTQVTVSS | 0.00058 | 0.001 | 
25 | IL6RPMP100G11 (VHH, family 4; also called IL6R100G11) VHH: EVQLVESGGGLVQAGGSLRLSCAASGRGFSPYTMGWFRQAPGKERVFVAGISWSTGIAHYTDSVKGRFTISRDNAKNTGSLQMNSLKPEDTAVYYCAVVQTTKGNYDYWGQGTQVTVSS | 0.00027 | 0.00045 | IC50, IL-6-dependent proliferation of TF-1 cells [1]: 0.116 µM
26 | IL6RPMP106B2 (VHH, family 6; periplasmic extract) VHH: EVQLVESGGGLVQAGGSLRLSCAASGSIFRINAMGWYRQAPGKQRELVAAAISGGSTNYADFVKGRFTISRDNAKNTVYLQMNSLKPEDTAVYYCNALVVSHNYSDYVPFPDDYWGQGTQVTVSS | 0.01 |  | 
27 | IL6RPMP103F2 (VHH, family 26; periplasmic extract) VHH: EVQLVESGGGLVQAGGSLRLSCVASGHTSDTYIMAWFRQAPGKEREFVASILWDGSITYYADSVKDRFTISRDISRKTLYLQMNSLRPEDTATYTCARGIYFSRRYVDPGIYGTWGQGTQVTVSS |  |  | binding result [2]: no binding
28 | IL6RPMP108C10 (VHH) VHH: EVQLVESGGGLVQPGGSLRLSCTASGRTFSDYDMGWFRQAPGKERECVAVIDTNGDNTLTVGSVKGRFAISRDNAKNTVYLQMNSLLPEDTAVYTCAAGAWSSLRSTAANYWGQGTQVTVSS |  | 0.00071 | 
29 | IL6RPMP108F7 (VHH) VHH: EVQLVESGGGLVQAGGSLRLSCTASGRTFSDYDMGWFRQAPGKERECVAVIDTNGDNTLTVGSVKGRFAISRDNAKNTVYLQMNSLLPEDTAVYTCAAGAWSSLRSTAANYWGQGTQVTVSS |  | 0.00074 | 
30 | IL6RPMP106D6 (VHH, family 22; periplasmic extract; also called PMP106D06) VHH: EVQLVESGGGLVQAGGSLRLSCAASGFTFDDYAIGWFRQAPGKEREGVSCMISSDGSTYYADSVKGRFTISSDNAKNTVYLQMDSLKPEDTAVYYCAADLSLYGCYVGDRDLYDYDYWGQGTQVTVSS | 0.001 |  | 

Reference: patent US20120171209A1 (Ablynx, published 2012)
